According to paper PMC1713233, “Implantation Serine Proteinases heterodimerize and are critical in hatching and implantation” (BMC Developmental Biology, 2006):

Biological target: T1, ISP1-ISP2 enzyme complex (Mus musculus, UniProt Q924N9+Q99MS4)
T1 construct: The native ISP enzyme complex was purified from mouse uterine tissue homogenates; from tissue; host or cells: uterus of pregnant CD1 mice (4.5-6.5 dpc)
Test: Inhibition of proteolytic activity of ISP enzyme complex, chromogenic assay with BAPNA as substrate
Format: biochemical
Description: Many general serine proteinase inhibitors were tested in order to identify suitable ISP inhibitors when BAPNA was used as a substrate. These included Benzamidine hydrochloride, 4-(Amidino-Phenyl)-Methane-Sulfonyl Fluoride (APMSF), L-1 Chloro-3- [4-tosyl-amido]-7-amino-2-heptanone. HCl (TLCK), Trypsin Soybean Inhibitor (TSI), Bis (5-amidino-2-benzimadozolyl) methane (BABIM), Gabexate mesylate, Nafamostat, and the kunitz family serpins Uterine Plasmin-Trypsin Inhibitor (UPTI) and Secretary Leukocyte proteinase inhibitor (SLPI).
Only inhibitors specific for trypsin-like serine proteinases were able to inhibit the ISPs (Fig. 4B and Additional file 2. Table 1). IC50 (concentration of an inhibitor capable of inhibiting the enzyme activity by 50%) values were obtained by plotting inhibition data, which were extrapolated into Cheng and Prusoff's equation to derive the dissociation constant (Ki).
Chromogenic assays were carried out using the p-Nitroanilide conjugated peptidic substrates. The reaction conditions used were: 4 mM BAPNA (substrate), in 25 mM Tris.Cl (pH 8.0) and 10 mM EDTA reaction buffer, in a total reaction volume of 0.5 mL. The reactions were carried out at room temperature in a glass cuvette (1 cm path length), and scanned at wavelength maxima of 405 nm using a spectrophotometer. 1 Unit of enzyme is defined as enzyme activity sufficient for the breakdown of 1 μM of substrate/ml/min. The affinity of ISP complex with various substrates was characterized by measuring enzyme activity at differing substrate concentrations and plotting enzyme activity [V] vs. substrate concentration [S]. The Km was calculated using the Michaelis Menton equation (Km = [S] at 1/2 Vmax).
IC50 values were derived by plotting enzyme activity (V) vs. inhibitor concentration [I]. Dissociation constants (Ki) values for different inhibitors were determined by using the Cheng and Prusoff equation (Ki = IC50/1 + [S]/Km).

T1 sequence (Q924N9 27-274): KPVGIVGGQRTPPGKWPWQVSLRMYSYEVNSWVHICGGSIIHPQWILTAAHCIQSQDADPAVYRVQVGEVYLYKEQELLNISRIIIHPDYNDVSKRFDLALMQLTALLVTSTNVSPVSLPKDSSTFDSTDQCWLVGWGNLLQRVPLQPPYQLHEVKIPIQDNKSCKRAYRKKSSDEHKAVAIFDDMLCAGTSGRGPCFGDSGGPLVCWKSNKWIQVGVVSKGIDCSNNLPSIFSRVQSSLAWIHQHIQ
T1 sequence (Q99MS4 18-279): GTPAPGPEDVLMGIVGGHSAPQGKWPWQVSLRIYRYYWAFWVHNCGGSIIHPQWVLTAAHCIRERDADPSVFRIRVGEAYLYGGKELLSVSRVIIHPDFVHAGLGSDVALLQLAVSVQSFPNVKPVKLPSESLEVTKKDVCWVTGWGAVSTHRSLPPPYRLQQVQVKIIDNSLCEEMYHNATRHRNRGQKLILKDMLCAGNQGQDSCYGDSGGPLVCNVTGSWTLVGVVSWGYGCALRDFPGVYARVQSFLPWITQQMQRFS

B1: TSI: Trypsin Soybean Inhibitor, obtained from Sigma Aldrich (protein, UniProt P01070 25-205, looked up)
Trypsin inhibitor A: DFVLDNEGNPLENGGTYYILSDITAFGGIRAAPTGNERCPLTVVQSRNELDKGIGTIISSPYRIRFIAEGHPLSLKFDSFAVIMLCVGIPTEWSVVEDLPEGPAVKIGENKDAMDGWFRLERVSDDEFNNYKLVFCPQQAEDDKCGDIGISIDHDDGTRRLVVSKNKPLVVQFQKLDKESL
For B1, which IC50 (4 mM BAPNA substrate, 25 mM Tris.Cl pH 8.0, room temperature, read-out: IC50%) is on record?
The IC50 was 8 µM.

What about the “Affinity for ISP enzyme” value (Fig. 4B, compared to Benzamidine) of the same molecule?
Its value is “relatively high affinity”.

And the “Influence on ISP activity” value (general trypsin inhibitors)?
Its value is “inhibitory influence”.
